The source of these data is PMC2830701 (The EMBO Journal, 2009).

The target in the assay is Bovine Hsc70 (1–554) (bovine, UniProt P19120 1-554). Description: co-sedimentation.
Chain of Bovine Hsc70 (1–554) (P19120 1-554): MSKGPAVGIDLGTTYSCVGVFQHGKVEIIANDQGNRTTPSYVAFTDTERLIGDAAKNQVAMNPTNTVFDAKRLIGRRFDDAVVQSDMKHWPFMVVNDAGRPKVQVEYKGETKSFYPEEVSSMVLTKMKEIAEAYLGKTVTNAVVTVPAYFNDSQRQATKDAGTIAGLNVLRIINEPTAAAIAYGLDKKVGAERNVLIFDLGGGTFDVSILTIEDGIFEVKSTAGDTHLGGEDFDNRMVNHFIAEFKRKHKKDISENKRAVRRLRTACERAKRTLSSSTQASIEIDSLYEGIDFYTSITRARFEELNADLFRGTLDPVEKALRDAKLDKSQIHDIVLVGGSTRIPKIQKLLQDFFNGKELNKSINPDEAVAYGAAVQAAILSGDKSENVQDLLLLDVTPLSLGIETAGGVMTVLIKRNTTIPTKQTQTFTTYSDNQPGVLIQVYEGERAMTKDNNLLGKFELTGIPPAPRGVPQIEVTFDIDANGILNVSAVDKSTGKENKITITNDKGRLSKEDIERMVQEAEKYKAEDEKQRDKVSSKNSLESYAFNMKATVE

B1: Bovine auxilin (547–910) (domain or fragment, UniProt Q27974 547-910, looked up)
chain: PSGPTSTQSTPRRSATSTSASPTLRVGEGATFDPFGAPSKPSGQDLLGSFLNTASASSDPFLQPTRSPSPTVHASSTPAVNIQPDVSGAWDWHTKPGGFGMGSKSAATSPTGSSHGTPTHQNKPQTLDPFADLGTLGGSSFASKPSTPTGLGGGFPPLSSPQKASPQPMGGGWQQGGGYNWQQTQSKPQSSMPHSSPQNRPNYNVSFSSMPGGQNERGKAAANLEGKQKAADFEDLLSGQGFNAHKDKKGPRTIAEMRKEEMAKEMDPEKLKILEWIEGKERNIRALLSTMHTVLWAGETKWKPVGMADLVTPEQVKKVYRKAVLVVHPDKATGQPYEQYAKMIFMELNDAWSEFENQGQKPLY
Consider B1, for which the binding result is “binds”.
